This is an account of results in doi:10.1101/2020.08.09.242891 (bioRxiv, 2020).

This assay addresses T1, FLAG-PKD1 (protein kinase D1) (UniProt Q15139 1-912).
T1 sequence (looked up): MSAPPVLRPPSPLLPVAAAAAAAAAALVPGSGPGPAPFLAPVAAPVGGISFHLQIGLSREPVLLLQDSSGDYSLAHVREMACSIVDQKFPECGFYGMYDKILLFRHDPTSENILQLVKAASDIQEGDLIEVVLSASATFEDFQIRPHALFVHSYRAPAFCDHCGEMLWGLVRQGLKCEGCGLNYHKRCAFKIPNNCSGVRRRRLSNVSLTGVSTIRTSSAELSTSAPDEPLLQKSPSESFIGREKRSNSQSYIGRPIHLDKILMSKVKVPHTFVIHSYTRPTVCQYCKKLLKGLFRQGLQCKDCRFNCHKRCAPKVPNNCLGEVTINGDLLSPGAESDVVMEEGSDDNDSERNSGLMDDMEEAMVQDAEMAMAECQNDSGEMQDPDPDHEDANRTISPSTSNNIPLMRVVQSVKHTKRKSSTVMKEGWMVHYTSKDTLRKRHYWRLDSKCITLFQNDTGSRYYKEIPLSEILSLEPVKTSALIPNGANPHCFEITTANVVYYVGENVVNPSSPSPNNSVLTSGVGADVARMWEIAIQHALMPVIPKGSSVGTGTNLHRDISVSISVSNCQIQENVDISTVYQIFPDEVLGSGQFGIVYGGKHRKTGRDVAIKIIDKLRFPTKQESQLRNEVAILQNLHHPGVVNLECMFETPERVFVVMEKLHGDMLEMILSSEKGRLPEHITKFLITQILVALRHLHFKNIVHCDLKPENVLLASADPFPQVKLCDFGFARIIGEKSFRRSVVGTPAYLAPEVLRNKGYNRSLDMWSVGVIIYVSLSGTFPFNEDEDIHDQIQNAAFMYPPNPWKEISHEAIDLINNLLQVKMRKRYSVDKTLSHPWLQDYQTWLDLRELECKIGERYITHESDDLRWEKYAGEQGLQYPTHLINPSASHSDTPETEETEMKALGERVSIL
Briefly: pull-down.

B1: GST-CBX8 (natural protein, UniProt Q9HC52 1-389, looked up)
chain: MELSAVGERVFAAEALLKRRIRKGRMEYLVKWKGWSQKYSTWEPEENILDARLLAAFEEREREMELYGPKKRGPKPKTFLLKAQAKAKAKTYEFRSDSARGIRIPYPGRSPQDLASTSRAREGLRNMGLSPPASSTSTSSTCRAEAPRDRDRDRDRDRERDRERERERERERERERERERGTSRVDDKPSSPGDSSKKRGPKPRKELPDPSQRPLGEPSAGLGEYLKGRKLDDTPSGAGKFPAGHSVIQLARRQDSDLVQCGVTSPSSAEATGKLAVDTFPARVIKHRAAFLEAKGQGALDPNGTRVRHGSGPPSSGGGLYRDMGAQGGRPSLIARIPVARILGDPEEESWSPSLTNLEKVVVTDVTSNFLTVTIKESNTDQGFFKEKR
With B1, the binding result is “binds”.
